Conditions in all cases: both partners purified
Assay [1] concerns the target T1, Ycg1(6-932, Δ499-555)-Brn1(384-529) (S. cerevisiae, UniProt Q06680 6-932; P38170 384-529, Δ499-555).
T1 construct: Brn1, S. cerevisiae, residues 384-529; also called Ycg1-Brn1; Ycg1-short Brn1
T1 sequence (looked up) 1: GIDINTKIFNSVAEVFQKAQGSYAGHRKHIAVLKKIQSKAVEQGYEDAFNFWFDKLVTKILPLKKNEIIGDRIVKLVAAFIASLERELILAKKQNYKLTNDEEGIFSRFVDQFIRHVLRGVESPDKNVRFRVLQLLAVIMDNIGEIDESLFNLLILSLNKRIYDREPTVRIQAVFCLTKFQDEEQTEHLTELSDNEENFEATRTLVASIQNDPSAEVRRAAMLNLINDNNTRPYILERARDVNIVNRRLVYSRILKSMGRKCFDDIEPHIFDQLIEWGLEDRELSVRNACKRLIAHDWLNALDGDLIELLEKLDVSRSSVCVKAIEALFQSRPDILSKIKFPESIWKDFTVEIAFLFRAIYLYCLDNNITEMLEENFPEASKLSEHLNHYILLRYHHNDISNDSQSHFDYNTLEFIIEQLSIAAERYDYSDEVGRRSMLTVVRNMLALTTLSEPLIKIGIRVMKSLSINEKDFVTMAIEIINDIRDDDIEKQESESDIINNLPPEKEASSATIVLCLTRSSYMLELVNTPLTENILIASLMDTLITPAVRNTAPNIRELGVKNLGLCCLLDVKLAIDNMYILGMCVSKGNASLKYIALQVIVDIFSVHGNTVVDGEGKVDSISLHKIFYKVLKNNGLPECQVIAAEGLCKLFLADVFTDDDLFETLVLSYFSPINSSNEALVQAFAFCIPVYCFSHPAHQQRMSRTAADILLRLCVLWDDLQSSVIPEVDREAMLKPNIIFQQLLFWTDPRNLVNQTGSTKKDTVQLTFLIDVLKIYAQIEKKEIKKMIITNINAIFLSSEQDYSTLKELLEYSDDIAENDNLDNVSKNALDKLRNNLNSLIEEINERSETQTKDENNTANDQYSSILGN
T1 sequence (looked up) 2: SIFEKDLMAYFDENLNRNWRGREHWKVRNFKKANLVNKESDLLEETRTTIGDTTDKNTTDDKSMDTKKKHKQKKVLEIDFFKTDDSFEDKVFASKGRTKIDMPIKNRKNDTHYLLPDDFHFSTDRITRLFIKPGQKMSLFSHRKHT
The assay can be described thus: co-IP; two purified recombinant proteins incubated 2.5 hours with anti-V5-coupled dynabeads (V5-Sgo1 held); 25 mM HEPES pH 7.5, 500 mM NaCl, 10 % glycerol, 1 mM DTT, 0.1 % NP-40; silver stain or immunoblot.

Another assay has as its target T2, Ycg1(6-932, Δ499-555) (S. cerevisiae, UniProt Q06680 6-932, Δ499-555).
T2 construct: Stood in the assay as a chain of m6; made a molecule for the cross-links
T2 sequence (looked up): T1 sequence (looked up) 1
The assay is described as follows: cross-linking; BS3 cross-linking mass spectrometry; Sgo1: Ycg1-Brn1 molar ratio 1.5:1; 25 mM HEPES pH7.5, 500 mM NaCl, 10% glycerol; 2 hours on ice; crosslinks with score>10.5.

The target of assay [2] is T1, Ycg1(6-932, Δ499-555)-Brn1(384-529). The assay is described as follows: co-IP; two purified recombinant proteins incubated 2.5 hours with anti-GFP-coupled dynabeads (GFP-Sgo1 variant held); 25 mM HEPES pH 7.5, 500 mM NaCl, 10 % glycerol, 1 mM DTT, 0.1 % NP-40; silver stain.
In assay [3] the target is T3, Ycg1 (subunit within the purified pentameric condensin holocomplex) (S. cerevisiae, UniProt Q06680 1-1035).
T3 construct: Ycg1, HAWK subunit of S. cerevisiae condensin; Stood in the assay as a subunit of m2; made a molecule for the cross-links to Sgo1; source: purified from yeast as part of the pentameric condensin complex
T3 sequence (looked up): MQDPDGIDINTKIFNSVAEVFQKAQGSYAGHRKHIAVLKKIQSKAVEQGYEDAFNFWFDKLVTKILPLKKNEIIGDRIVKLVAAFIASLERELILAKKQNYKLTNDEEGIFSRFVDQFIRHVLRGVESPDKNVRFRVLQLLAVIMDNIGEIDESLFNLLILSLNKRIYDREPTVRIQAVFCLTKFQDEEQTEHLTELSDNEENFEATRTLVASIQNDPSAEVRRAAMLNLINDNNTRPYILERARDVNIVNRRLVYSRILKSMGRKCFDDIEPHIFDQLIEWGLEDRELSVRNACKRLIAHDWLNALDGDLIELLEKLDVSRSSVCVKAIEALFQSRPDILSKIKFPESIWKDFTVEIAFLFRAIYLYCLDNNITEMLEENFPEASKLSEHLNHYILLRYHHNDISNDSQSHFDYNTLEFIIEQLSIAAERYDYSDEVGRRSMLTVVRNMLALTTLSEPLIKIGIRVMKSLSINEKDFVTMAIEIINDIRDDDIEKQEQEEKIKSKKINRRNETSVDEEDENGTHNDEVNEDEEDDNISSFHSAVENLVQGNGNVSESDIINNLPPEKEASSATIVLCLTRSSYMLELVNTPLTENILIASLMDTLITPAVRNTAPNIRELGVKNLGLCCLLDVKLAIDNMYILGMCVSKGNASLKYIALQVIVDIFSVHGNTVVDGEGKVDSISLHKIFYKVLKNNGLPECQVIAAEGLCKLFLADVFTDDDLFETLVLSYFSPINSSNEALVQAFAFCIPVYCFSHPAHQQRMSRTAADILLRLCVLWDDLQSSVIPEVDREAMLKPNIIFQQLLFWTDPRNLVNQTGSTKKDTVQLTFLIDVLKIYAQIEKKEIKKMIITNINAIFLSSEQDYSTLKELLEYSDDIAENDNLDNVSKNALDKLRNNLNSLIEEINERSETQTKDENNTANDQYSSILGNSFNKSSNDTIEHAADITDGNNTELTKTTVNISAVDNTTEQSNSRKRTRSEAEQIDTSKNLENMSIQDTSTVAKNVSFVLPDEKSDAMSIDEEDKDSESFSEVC
The assay can be described thus: cross-linking; BS3 cross-linking mass spectrometry of full length Sgo1 with condensin holo-complex, 1:1 (w:w); 25 mM HEPES pH7.5, 150 mM NaCl, 5% glycerol, 1mM DTT; 2 hours on ice; crosslinks with score>10.5.

B1: V5-Sgo1 (350-590) (domain or fragment, S. cerevisiae, UniProt Q08490 350-590, looked up)
chain: EVMPVSNMSSNSEISFTRTRRTRGKAVDYTLPSLRAKMRRPSEKLVDATTVIDIHDLQVSKRNRETSHKRKSLSQDSIPDEPQLREVVVSKDYGTPKGKKTEDEIHEDTAHLMTTSNNNSNNKNEKKLTSNNSPKKSSPLLDITNKSENKKKSTRTKKLFKNAIVNNLSDENSTTRPSKSSKGTSNNNNNYNNFDNNNSNINNVNNKSVSFRLNEDDLAVFDLFGNGKAVKHQPKTYRTKK
notes: Sgo1, S. cerevisiae, residues 350-590 (C-terminal region); also called C-terminus of Sgo1 (350-590); C-Sgo1; source: protease-deficient yeast strain (AM8184), galactose induced, purified as V5-Sgo1 (FL) (Ni2+ IMAC, gel filtration)
Take B1: the binding result is reported as “binds” in assay [1] and “binds” in the assay with Ycg1(6-932, Δ499-555).

B2: GFP-Sgo1(350-590) (domain or fragment, S. cerevisiae, UniProt Q08490 350-590, looked up)
chain: B1 chain
notes: Sgo1, S. cerevisiae, residues 350-590; codon optimized gene; Written GFP-Sgo1; also called GFP-tagged C-Sgo1; wild type
As to B2, the binding result in assay [2] is recorded as “binds”.

B3: V5-Sgo1 (FL) (natural protein, S. cerevisiae, UniProt Q08490 1-590, looked up)
chain: MPKRKIAPNKESSRRTVSHDDLTPQIQEFQNLMDLESQKVENIRQSYSRQNSLLAKDNSILKIKVNSLEKKISQLVQENVTLRSKTSISEAIYRERLSNQLQVIENGIIQRFDEIFYMFENVRKNENLPSSSLRTMLKRTSSRSRSCSLSSPTYSKSYTRLSNHENNLSHESSFNKDDGPDLEPKAKKRKSSRRQSMFVSTSLEPEDETGENEPMMENSSVEVPAESHESAQVEETIDALNPEEENSDSVSNFTNSIIEYSIPEENPTEPEHSSSKLEIFNDSTNMLSTVPSNPLPLPLPGPSATLPTTTSDASTVYPSSSSSTNSHPKTKIKHSMKPPRIELKKKVIDEVMPVSNMSSNSEISFTRTRRTRGKAVDYTLPSLRAKMRRPSEKLVDATTVIDIHDLQVSKRNRETSHKRKSLSQDSIPDEPQLREVVVSKDYGTPKGKKTEDEIHEDTAHLMTTSNNNSNNKNEKKLTSNNSPKKSSPLLDITNKSENKKKSTRTKKLFKNAIVNNLSDENSTTRPSKSSKGTSNNNNNYNNFDNNNSNINNVNNKSVSFRLNEDDLAVFDLFGNGKAVKHQPKTYRTKK
notes: Sgo1 (shugoshin), S. cerevisiae, full length; Written V5-Sgo1; also called full length Sgo1; shugoshin; source: protease-deficient yeast strain (AM8184), purified (Ni2+ HiTrap IMAC, Superose 6 gel filtration)
For B3, in assay [3], the binding result is on record as “binds”.

B4: Brn1(384-529) (domain or fragment, S. cerevisiae, UniProt P38170 384-529, looked up)
chain: T1 sequence (looked up) 2
notes: Brn1, S. cerevisiae, residues 384-529; Stood in the assay as a chain of m6; made a molecule for the cross-links; also called short Brn1
Take B4: in the assay with Ycg1(6-932, Δ499-555), the binding result is on record as “binds”.

B5: GFP-Sgo1 (472-530) (domain or fragment, S. cerevisiae, UniProt Q08490 472-530, looked up)
chain: KNEKKLTSNNSPKKSSPLLDITNKSENKKKSTRTKKLFKNAIVNNLSDENSTTRPSKSS
notes: Sgo1, S. cerevisiae, residues 472-530 (holds CR1); also called wild type; source: E. coli BL21(DE3), purified (Ni-NTA resin, dialysis)
Consider B5, for which the binding result in assay [2] is “binds”.

For the origin of these results see paper doi:10.1101/2024.03.27.586992, “Molecular basis for condensin enrichment at pericentromeres” (bioRxiv, 2024).
